The results in this text go back to paper PMC11439917 (Nature Communications, 2024).

The target in this assay is human full-length LRRK2 (leucine-rich repeat kinase 2), purified (human, UniProt Q5S007 1-2527). Nature of the assay: cryo-EM structure.
Sequence of human full-length LRRK2 (leucine-rich repeat kinase 2), purified (Q5S007 whole entry): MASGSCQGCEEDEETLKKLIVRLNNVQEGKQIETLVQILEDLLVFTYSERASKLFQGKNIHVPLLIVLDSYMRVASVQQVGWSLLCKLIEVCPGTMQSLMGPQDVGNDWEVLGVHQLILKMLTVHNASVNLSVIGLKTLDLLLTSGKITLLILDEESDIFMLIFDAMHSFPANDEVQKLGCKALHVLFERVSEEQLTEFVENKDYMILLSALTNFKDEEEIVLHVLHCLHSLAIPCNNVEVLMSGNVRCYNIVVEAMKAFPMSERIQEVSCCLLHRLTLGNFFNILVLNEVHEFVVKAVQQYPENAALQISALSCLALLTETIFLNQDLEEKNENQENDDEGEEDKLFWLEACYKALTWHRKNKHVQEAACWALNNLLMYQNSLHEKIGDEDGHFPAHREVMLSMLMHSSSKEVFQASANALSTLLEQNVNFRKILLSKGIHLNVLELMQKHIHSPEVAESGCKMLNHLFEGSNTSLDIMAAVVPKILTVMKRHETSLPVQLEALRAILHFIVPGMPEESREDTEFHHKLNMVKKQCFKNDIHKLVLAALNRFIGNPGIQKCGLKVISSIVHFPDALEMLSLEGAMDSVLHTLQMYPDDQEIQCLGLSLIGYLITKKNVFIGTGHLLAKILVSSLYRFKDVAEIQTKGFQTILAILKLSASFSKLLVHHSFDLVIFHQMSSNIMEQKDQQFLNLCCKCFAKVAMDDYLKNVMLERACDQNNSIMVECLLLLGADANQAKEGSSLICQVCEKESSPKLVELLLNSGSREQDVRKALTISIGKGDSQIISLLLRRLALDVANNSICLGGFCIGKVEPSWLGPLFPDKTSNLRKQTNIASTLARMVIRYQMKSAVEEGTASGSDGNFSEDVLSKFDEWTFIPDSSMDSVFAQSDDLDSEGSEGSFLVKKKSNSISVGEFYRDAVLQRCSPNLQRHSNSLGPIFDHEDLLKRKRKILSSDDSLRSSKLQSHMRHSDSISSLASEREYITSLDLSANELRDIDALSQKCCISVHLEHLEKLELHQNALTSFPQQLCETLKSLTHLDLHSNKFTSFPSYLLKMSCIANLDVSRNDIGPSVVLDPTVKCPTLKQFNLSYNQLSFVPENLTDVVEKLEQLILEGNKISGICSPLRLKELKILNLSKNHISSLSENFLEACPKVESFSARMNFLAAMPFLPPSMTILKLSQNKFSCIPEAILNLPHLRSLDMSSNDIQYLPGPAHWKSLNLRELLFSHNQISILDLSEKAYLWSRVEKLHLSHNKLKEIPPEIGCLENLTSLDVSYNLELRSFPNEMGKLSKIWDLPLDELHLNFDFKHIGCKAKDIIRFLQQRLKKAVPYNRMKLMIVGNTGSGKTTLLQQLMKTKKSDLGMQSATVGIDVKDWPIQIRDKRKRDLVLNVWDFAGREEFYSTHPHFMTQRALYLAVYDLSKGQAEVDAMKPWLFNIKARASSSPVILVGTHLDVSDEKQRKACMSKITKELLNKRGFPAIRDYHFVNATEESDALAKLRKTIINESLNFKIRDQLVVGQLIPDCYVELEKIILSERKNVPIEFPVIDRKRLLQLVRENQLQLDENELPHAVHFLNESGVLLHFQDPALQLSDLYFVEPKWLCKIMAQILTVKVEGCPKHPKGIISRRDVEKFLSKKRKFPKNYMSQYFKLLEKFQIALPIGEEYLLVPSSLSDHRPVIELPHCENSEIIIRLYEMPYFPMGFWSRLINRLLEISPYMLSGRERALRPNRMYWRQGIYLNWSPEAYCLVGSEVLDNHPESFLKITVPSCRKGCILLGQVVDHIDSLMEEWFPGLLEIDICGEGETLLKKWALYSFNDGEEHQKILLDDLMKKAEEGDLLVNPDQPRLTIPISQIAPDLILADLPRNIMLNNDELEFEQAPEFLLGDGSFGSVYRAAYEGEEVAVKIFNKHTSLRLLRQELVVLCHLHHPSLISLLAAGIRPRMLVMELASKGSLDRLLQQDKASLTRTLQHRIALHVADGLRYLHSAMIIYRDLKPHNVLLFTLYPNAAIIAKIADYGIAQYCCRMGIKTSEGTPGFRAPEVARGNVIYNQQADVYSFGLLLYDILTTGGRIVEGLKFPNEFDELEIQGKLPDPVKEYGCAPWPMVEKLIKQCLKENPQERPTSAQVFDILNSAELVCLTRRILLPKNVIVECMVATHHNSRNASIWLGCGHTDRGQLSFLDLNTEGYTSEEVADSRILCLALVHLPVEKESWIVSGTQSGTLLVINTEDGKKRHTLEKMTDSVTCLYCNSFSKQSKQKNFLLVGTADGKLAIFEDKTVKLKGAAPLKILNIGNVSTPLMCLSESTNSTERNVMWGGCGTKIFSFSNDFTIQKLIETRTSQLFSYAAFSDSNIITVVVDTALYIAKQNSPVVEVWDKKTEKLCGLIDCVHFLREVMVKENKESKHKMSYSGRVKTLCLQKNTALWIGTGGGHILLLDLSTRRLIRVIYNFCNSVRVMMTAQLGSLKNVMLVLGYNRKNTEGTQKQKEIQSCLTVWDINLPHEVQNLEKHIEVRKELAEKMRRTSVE

B1: human RAB12 (residues 36-211) Q101L, GppNHp-bound (domain or fragment)
chain: PRPADFKLQVIIIGSRGVGKTSLMERFTDDTFCEACKSTVGVDFKIKTVELRGKKIRLQIWDTAGLERFNSITSAYYRSAKGIILVYDITKKETFDDLPKWMKMIDKYASEDAELLLVGNKLDCETDREITRQQGEKFAQQITGMRFCEASAKDNFNVDEIFLKLVDDILKKMPLD
Consider B1, for which the binding result is recorded as “binds”.
